Source: article PMC11219989
Blank lines part the entries; values can stand above or below the binder they belong to.

Columns and labels:
[1] = biological target: T1, unknown natural tumor antigen of the autologous tumor organoids of patient CRC3 peptide on (human); experiment: CD137 sort of CD8+ oeT cells after 24 h restimulation with autologous tumor organoids (cells that express the antigen), single-cell RT-PCR; 0% in TIL alone; ex vivo sorted cells; settings: chains alpha TRAV10*01 TRAJ4*01 CDR3:beta TRBV9*01 TRBJ1-2*01 CDR3
[2] = biological target: T1, unknown natural tumor antigen of the …; experiment: CD137 sort of CD8+ oeT cells after 24 h restimulation with autologous tumor organoids (cells that express the antigen), single-cell RT-PCR; 0.4% in TIL alone; ex vivo sorted cells; settings: chains alpha TRAV8-6*02 TRAJ20*01 CDR3:beta TRBV6-1*01 TRBJ1-3*01 CDR3
[3] = biological target: T2, unknown natural tumor antigen of the autologous tumor organoids of patient CRC1 peptide on (human); experiment: CD137 sort of CD8+ oeT cells after 24 h restimulation with autologous tumor organoids (cells that express the antigen), single-cell RT-PCR; 3.6% in TIL alone; ex vivo sorted cells; settings: chains alpha TRAV35*02 TRAJ10*01 CDR3:beta TRBV28*01 TRBJ2-2*01 CDR3
[4] = biological target: T2, unknown natural tumor antigen of the …; experiment: CD137 sort of CD8+ oeT cells after 24 h restimulation with autologous tumor organoids (cells that express the antigen), single-cell RT-PCR; 2.5% in TIL alone; ex vivo sorted cells; settings: chains alpha TRAV24*01 TRAJ12*01 CDR3:beta TRBV28*01 TRBJ1-2*01 CDR3
[5] = biological target: T3, unknown natural tumor antigen of the autologous tumor organoids of patient CRC2 peptide on (human); experiment: CD137 sort of CD8+ oeT cells after 24 h restimulation with autologous tumor organoids (cells that express the antigen), single-cell RT-PCR; 1.1% in TIL alone; ex vivo sorted cells
[6] = biological target: T1, unknown natural tumor antigen of the …; experiment: CD137 sort of CD8+ oeT cells after 24 h restimulation with autologous tumor organoids (cells that express the antigen), single-cell RT-PCR; 3% in TIL alone; ex vivo sorted cells; settings: chains alpha TRAV14/DV4*01 TRAJ45*01 CDR3:beta TRBV20-1*01 TRBJ2-1*01 CDR3
[7] = biological target: T4, unknown natural tumor antigen of the autologous tumor organoids of patient CRC4 peptide on (human); experiment: CD137 sort of CD8+ oeT cells after 24 h restimulation with autologous tumor organoids (cells that express the antigen), single-cell RT-PCR; 0% in TIL alone; ex vivo sorted cells
[8] = biological target: T1, unknown natural tumor antigen of the …; experiment: CD137 sort of CD8+ oeT cells after 24 h restimulation with autologous tumor organoids (cells that express the antigen), single-cell RT-PCR; 1.3% in TIL alone; ex vivo sorted cells; settings: chains alpha TRAV10*01 TRAJ16*02 CDR3:beta TRBV10-3*02 TRBJ2-1*01 CDR3
[9] = biological target: T2, unknown natural tumor antigen of the …; experiment: CD137 sort of CD8+ oeT cells after 24 h restimulation with autologous tumor organoids (cells that express the antigen), single-cell RT-PCR; 4.3% in TIL alone; ex vivo sorted cells; settings: chains alpha TRAV35*02 TRAJ10*01 CDR3:beta TRBV6-1*01 TRBJ1-2*01 CDR3
[10] = biological target: T3, unknown natural tumor antigen of the …; experiment: CD137 sort of CD8+ oeT cells after 24 h restimulation with autologous tumor organoids (cells that express the antigen), single-cell RT-PCR; 2.8% in TIL alone; ex vivo sorted cells; settings: chains alpha TRAV23/DV6*01 TRAJ45*01 CDR3:beta TRBV9*01 TRBJ2-1*01 CDR3
[11] = biological target: T4, unknown natural tumor antigen of the …; experiment: CD137 sort of CD8+ oeT cells after 24 h restimulation with autologous tumor organoids (cells that express the antigen), single-cell RT-PCR; 2.4% in TIL alone; ex vivo sorted cells; settings: chains alpha TRAV20*01 TRAJ4*01 CDR3:beta TRBV12-3*01 TRBJ1-5*01 CDR3
[12] = biological target: T3, unknown natural tumor antigen of the …; experiment: CD137 sort of CD8+ oeT cells after 24 h restimulation with autologous tumor organoids (cells that express the antigen), single-cell RT-PCR; 0.5% in TIL alone; ex vivo sorted cells
[13] = biological target: T2, unknown natural tumor antigen of the …; experiment: CD137 sort of CD8+ oeT cells after 24 h restimulation with autologous tumor organoids (cells that express the antigen), single-cell RT-PCR; 1.2% in TIL alone; ex vivo sorted cells; settings: chains alpha TRAV36/DV7*04 TRAJ30*01 CDR3:beta TRBV6-5*01 TRBJ2-2*01 CDR3

frequency among sorted CD8+CD137+ PDO(T)-oeT cells [1]: 4%
B1: TCR14 (peptide)
chain 1: VVSFSGGYNKLI
chain 2: ASSVGDRDYGYT

frequency among sorted CD8+CD137+ PDO(T)-oeT cells [2]: 3%
B2: TCR15 (peptide)
chain 1: AVSGRSNDYKLS
chain 2: ASSEKRQGAGNTIY

frequency among sorted CD8+CD137+ PDO(T)-oeT cells [3]: 17.8%
B3: TCR2 (peptide)
chain 1: AGVTGGGNKLT
chain 2: ASSLTSASGELF

frequency among sorted CD8+CD137+ PDO(T)-oeT cells [4]: 6.7%
B4: TCR3 (peptide)
chain 1: APWMDSSYKLI
chain 2: ASSIGGHDGYT

frequency among sorted CD8+CD137+ PDO(T)-oeT cells ([5]; chains alpha TRAV8-3*01 TRAJ21*01 CDR3:beta TRBV28*01 TRBJ2-2*01 CDR3): 13.4%
B5: TCR6 (peptide)
chain 1: AVGDNFNKFY
chain 2: ASSYVGNTGELF

frequency among sorted CD8+CD137+ PDO(T)-oeT cells [6]: 4%
B6: TCR13 (peptide)
chain 1: ANDSGGGADGLT
chain 2: SARGLLGGRAREQF

frequency among sorted CD8+CD137+ PDO(T)-oeT cells ([7]; chains alpha TRAV3*01 TRAJ31*01 CDR3:beta TRBV9*01 TRBJ2-3*01 CDR3): 10.3%
B7: TCR18 (peptide)
chain 1: AVRDEGARLM
chain 2: ASSIFSGTGGADTQY

frequency among sorted CD8+CD137+ PDO(T)-oeT cells [8]: 8%
B8: TCR12 (peptide)
chain 1: VSGFSDGQKLL
chain 2: ATTKTGERPDEQF

frequency among sorted CD8+CD137+ PDO(T)-oeT cells [9]: 25.6%
B9: TCR1 (peptide)
chain 1: AGVTGGGNKLT
chain 2: ASSEGTGFYGYT

frequency among sorted CD8+CD137+ PDO(T)-oeT cells [10]: 9.3%
B10: TCR8 (peptide)
chain 1: ALKAGGGASKLT
chain 2: ASSVGGGVDEQF

frequency among sorted CD8+CD137+ PDO(T)-oeT cells [11]: 13.5%
B11: TCR17 (peptide)
chain 1: AVFSGGYNKLI
chain 2: ASSLEFYSNQPQH

frequency among sorted CD8+CD137+ PDO(T)-oeT cells ([7]; chains alpha TRAV22*01 TRAJ26*01 CDR3:beta TRBV4-3*01 TRBJ1-4*01 CDR3): 7.7%
B12: TCR19 (peptide)
chain 1: AVGRGYGQNFV
chain 2: ASSQDGGLNEKLF

frequency among sorted CD8+CD137+ PDO(T)-oeT cells ([7]; chains alpha TRAV13-2*01 TRAJ8*01 CDR3:beta TRBV30*01 TRBJ1-2*01 CDR3): 7.1%
B13: TCR20 (peptide)
chain 1: AENMGFQKLV
chain 2: AWTQGANGYT

frequency among sorted CD8+CD137+ PDO(T)-oeT cells ([12]; chains alpha TRAV14/DV4*03 TRAJ24*03 CDR3:beta TRBV28*01 TRBJ1-4*01 CDR3): 12.4%
B14: TCR7 (peptide)
chain 1: AMREGADSWGKFQ
chain 2: ASSLHGRGDEKLF

frequency among sorted CD8+CD137+ PDO(T)-oeT cells ([12]; chains alpha TRAV13-1*01 TRAJ42*01 CDR3:beta TRBV4-1*01 TRBJ2-1*01 CDR3): 3.1%
B15: TCR10 (peptide)
chain 1: AASPPGGSQGNLI
chain 2: ASSHRTSSRGEQF

frequency among sorted CD8+CD137+ PDO(T)-oeT cells ([5]; chains alpha TRAV1-2*01 TRAJ6*01 CDR3:beta TRBV28*01 TRBJ2-2*01 CDR3): 8.2%
B16: TCR9 (peptide)
chain 1: AVRGTLSGGSYIPT
chain 2: ASSATSASGELF

frequency among sorted CD8+CD137+ PDO(T)-oeT cells [13]: 5%
B17: TCR5 (peptide)
chain 1: AVSRDDKII
chain 2: ASSYVGNTGELF
